{"source": "paper PMC7311561", "key": {"[1]": {"molecular_target": "cathepsin L from human (human)"}, "[2]": {"molecular_target": "papain from Carica papaya (Carica papaya) (UniProt P00784)", "sequence (P00784 134-345)": "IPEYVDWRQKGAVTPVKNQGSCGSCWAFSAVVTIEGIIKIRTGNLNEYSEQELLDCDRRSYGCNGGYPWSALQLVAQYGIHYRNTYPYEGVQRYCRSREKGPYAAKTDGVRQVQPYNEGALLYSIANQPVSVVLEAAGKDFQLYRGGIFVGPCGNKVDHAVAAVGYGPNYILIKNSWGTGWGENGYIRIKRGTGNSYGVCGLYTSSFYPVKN"}, "[3]": {"molecular_target": "cathepsin B from human (human)"}}}
{"substance": "TK-cystatin (secretory cystatin from Thelohanellus kitauei) (natural protein)", "values": [{"measurement": "IC50 of inhibition of cathepsin L activity (0.026 μmol/L cathepsin L, fluorogenic substrate Z-Phe-Arg-AMC, pH 5.5, increasing TK-cystatin)", "setting": "[1]", "value": 0.175, "unit": "μmol/L"}, {"measurement": "IC50 of inhibition of papain activity (0.15 μmol/L papain, fluorogenic substrate Z-Phe-Arg-AMC, pH 5.5, increasing TK-cystatin)", "setting": "[2]", "value": 0.8, "unit": "μmol/L"}, {"measurement": "IC50 of inhibition of cathepsin B activity (0.026 μmol/L cathepsin B, fluorogenic substrate Z-Arg-Arg-AMC, pH 5.5, increasing TK-cystatin)", "setting": "[3]", "value": 2.1, "unit": "μmol/L"}]}
